In patent publication US20250215098A1 (QYUNS THERAPEUTICS, published 2025):

T1: human IL-36R on HT29 cells, HT29 reporter gene cells, A431 cells and human PBMC (human, UniProt Q9HB29 20-575)
T1 sequence (looked up): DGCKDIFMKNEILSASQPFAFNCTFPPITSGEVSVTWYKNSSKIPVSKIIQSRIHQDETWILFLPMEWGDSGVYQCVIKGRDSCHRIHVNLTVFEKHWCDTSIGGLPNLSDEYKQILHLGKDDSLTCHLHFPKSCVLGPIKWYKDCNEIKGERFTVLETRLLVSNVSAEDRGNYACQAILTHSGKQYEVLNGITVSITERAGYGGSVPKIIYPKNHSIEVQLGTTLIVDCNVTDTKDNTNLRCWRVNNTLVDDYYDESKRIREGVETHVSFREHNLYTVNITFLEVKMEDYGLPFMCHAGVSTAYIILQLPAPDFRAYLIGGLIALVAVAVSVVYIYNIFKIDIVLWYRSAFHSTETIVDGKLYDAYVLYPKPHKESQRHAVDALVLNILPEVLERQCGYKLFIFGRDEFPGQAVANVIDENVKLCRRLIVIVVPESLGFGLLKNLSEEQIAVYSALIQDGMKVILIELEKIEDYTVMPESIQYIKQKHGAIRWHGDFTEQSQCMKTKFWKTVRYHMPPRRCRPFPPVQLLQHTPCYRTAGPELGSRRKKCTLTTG


Biological target: T1, human IL-36R on HT29 cells, HT29 …
Test: cell-based or functional assay

Binder | IC50 in inhibiting CXCL-1 release from A431 cells induced by the human IL-36 (α, β, γ) | IC50 in inhibiting CXCL-1 release from HT29 cells induced by the human IL-36 (α, β, γ) | IC50 in inhibiting IL-8 release from A431 cells induced by the human IL-36 (α, β, γ) | IC50 in inhibiting IL-8 release from HT29 cells induced by the human IL-36 (α, β, γ) | IC50 in inhibiting IL-8 release from human PBMC cells induced by the human IL-36β | IC50 in inhibiting STAT3 phosphorylation in HT29 reporter cells induced by human IL-36 (α, β, γ)
Spesolimab (expressed from the B6 sequence of patent US9023995B2) (antibody, V domains shown) VH: QVQLVQSGAEVKKPGASVKVSCKASGYSFTSSWIHWVKQAPGQGLEWMGEINPGNVRTNYNENFRNKVTMTVDTSISTAYMELSRLRSDDTAVYYCTVVFYGEPYFPYWGQGTLVTVSS VL: QIVLTQSPGTLSLSPGERATMTCTASSSVSSSYFHWYQQKPGQAPRLWIYRTSRLASGVPDRFSGSGSGTDFTLTISRLEPEDAATYYCHQFHRSPLTFGAGTKLEIK | 12.3 ng/mL | 12.3 ng/mL | 11.5 ng/mL | 11.5 ng/mL | 26.6 ng/mL | 15.7 ng/mL
QX009N (HZD25-54) (antibody, human IgG1, kappa, L234A L235A, V domains shown) VH: EVQLVESGGGLVQPGGSLRLSCAASGIDLSNYAMGWVRQAPGKGLEWVGYISGGGSAYYASWAKGRFTISRDNSKNTLYLQMNSLRAEDTAVYYCARWAIKSYFFGMDLWGQGTLVTVSS VL: DIQMTQSPSSVSASVGDRVTITCQASEYISSYLAWYQQKPGKAPKLLIYQASTLASGVPSRFSGSGSGTDFTLTISSLQPEDFATYYCQTNNAIHTYGGAFGGGTKVEIKR | 4.12 ng/mL | 2.21 ng/mL | 2.89 ng/mL | 1.53 ng/mL | 4.69 ng/mL | 2.16 ng/mL
